We go through 1 molecule from publication PMC6325117, “Highly modified and immunoactive N-glycans of the canine heartworm” (Nature Communications, 2019).

The experiment addresses T1, human complement component C1q (human, UniProt P02745 23-245; P02746 28-253; P02747 29-245).
T1 construct: complement C1q subcomponent subunit A, human; complement C1q subcomponent subunit B, human; complement C1q subcomponent subunit C, human; Detected with fluorescent anti-C1q; also called complement C1q; source: bought: Sigma (C1740); copies: + +
As to the kind of experiment: glycan array; AEAB-labelled D. immitis neutral N-glycan pool printed on NHS-modified glass slides; incubated first with human CRP (5 µg/ml), then serially with C1q and fluorescent anti-C1q; fluorescence read-out, mean of 10 spots. To be noted: both partners purified.

T1 sequence (P02745 23-245, chain 1 of 3): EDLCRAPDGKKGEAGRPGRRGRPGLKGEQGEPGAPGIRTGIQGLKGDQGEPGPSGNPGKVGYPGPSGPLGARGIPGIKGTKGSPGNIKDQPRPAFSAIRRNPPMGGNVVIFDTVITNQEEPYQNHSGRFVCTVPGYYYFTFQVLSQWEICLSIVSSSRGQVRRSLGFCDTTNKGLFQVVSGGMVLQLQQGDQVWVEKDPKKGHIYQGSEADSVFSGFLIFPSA
T1 sequence (P02746 28-253, chain 2 of 3): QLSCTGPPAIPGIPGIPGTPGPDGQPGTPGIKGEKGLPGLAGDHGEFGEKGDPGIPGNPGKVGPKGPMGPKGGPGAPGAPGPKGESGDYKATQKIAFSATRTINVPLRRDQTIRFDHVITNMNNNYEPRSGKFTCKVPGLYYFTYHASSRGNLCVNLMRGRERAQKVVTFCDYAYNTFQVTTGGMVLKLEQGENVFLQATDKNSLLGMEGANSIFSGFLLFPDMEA
T1 sequence (P02747 29-245, chain 3 of 3): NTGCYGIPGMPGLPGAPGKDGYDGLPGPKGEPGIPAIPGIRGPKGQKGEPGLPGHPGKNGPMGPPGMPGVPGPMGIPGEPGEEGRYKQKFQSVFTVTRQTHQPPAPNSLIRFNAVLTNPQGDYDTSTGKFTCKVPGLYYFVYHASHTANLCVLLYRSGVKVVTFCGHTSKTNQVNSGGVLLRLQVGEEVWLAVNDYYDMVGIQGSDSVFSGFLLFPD

B1: natural human C-reactive protein (natural protein, UniProt P02741 19-224, looked up)
chain: QTDMSRKAFVFPKESDTSYVSLKAPLTKPLKAFTVCLHFYTELSSTRGYSIFSYATKRQDNEILIFWSKDIGYSFTVGGSEILFEVPEVTVAPVHICTSWESASGIVEFWVDGKPRVRKSLKKGYTVGAEASIILGQEQDSFGGNFEGSQSLVGDIGNVNMWDFVLSPDEINTIYLGGPFSPNVLNWRALKYEVQGEVFTKPQLWP
notes: C-reactive protein, human, natural; called pentameric in the discussion; also called CRP; human pentraxin C-reactive protein; source: bought: MPBio (215231505)
As for B1, the binding result is on record as “binds”.
